According to PMC5879082, “PutA Is Required for Virulence and Regulated by PruR in Pseudomonas aeruginosa”:

B1: putA promoter F6 (dsDNA)
DNA 1: TTCCGCAGCCAGGAGTTTTCCGCAAAAACTCCAGAGTCTTTCGCAAGAATCGC
DNA 2: GCGATTCTTGCGAAAGACTCTGGAGTTTTTGCGGAAAACTCCTGGCTGCGGAA

Assays:
[1] = molecular target: T1, rPruR (AraC/XylS family regulator) (Pseudomonas aeruginosa PAK) (UniProt Q9I5F8); assay: EMSA; conditions: 50 mM Tris pH 7.9, 50 mM NaCl, 0.5 mM EDTA, 10% glycerol, 1% NP-40, 25 C, 10 min; 50 ng DNA, 2 ug rPruR in 20 ul; 8% native PAGE in TBE on ice (EMSA) …
T1 sequence: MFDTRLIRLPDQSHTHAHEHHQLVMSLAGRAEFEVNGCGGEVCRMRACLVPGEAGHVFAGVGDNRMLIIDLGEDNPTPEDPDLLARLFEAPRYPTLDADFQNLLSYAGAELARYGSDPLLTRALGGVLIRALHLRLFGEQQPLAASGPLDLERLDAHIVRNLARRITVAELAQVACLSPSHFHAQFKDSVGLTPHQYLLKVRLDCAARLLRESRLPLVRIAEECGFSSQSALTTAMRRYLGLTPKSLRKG

[2] = molecular target: T2, rPruR (AraC/XylS family regulator) (Pseudomonas aeruginosa PAK, UniProt Q9I5F8 1-250); assay: EMSA; 50 mM Tris pH 7.9, 50 mM NaCl, 0.5 mM EDTA, 10% glycerol, 1% NP-40, 25 C, 10 min; 50 ng DNA, 2 ug rPruR in 20 ul; 8% native PAGE in TBE on ice (EMSA); footprint 300 ng probe, 0.09 U DNase I, 25 C 5 min; conditions: protein: recombinant; tags: His tag (pET-28a(+)); blunt
T2 sequence: T1 sequence

Molecule | binding [1] | binding result [2]
CTTTCCCGTTCCTCTTCGCCGGCAGGCATGCGGACATTGCCGCTGCACGTCGGCACGACGCCATGCAGAGTGGCTACGCGGGTCTACCGACACAAAAAGAAATAATATAACATCCCAATAAATACGCCGAT (double strand) [putA promoter F5] | no binding | 
CCCTCTCGCAGCCACTACATTCCGCTATCCGCTGGTGCCTCGCGCCGGCGGAATGGGCCTGACCCATACTGATCCGTATTCCCGCGCCACAGGACGTGCCGCGCCGCCGGCACAACCCGCCGGCGGCGGTGCCCCGGGCAATGGACGCCTGGCCGGACTTCTTTCAATAACAATGGCTCCACAAGAGGAGGGCGTG (double strand) [putA promoter F3] | no binding | 
B1 |  | binds
